We go through six molecules from patent US20130237684A1 (RESEARCH CORPORATION TECHNOLOGIES, published 2013).

Data set [1] concerns the molecule itself. Put plainly: self-association seen by NMR line broadening.
Data set [2] addresses T1, C-terminal fragment of CD92 (FNfn10 cleaved in the CD loop) (human, UniProt P02751 1578-1631).
T1 construct: Start at residue 43 is inferred from the N-terminal fragment ending at Asn42
In words: Trp fluorescence titrations, extrapolated to plain buffer in the reverse order. The protocol: (§1) A dissociation constant can be determined from a titration experiment where the concentration of the fluorophore is held constant and its corresponding binding partner is added. […] When measuring the dissociation constant, the concentration of the fluorophore has to be lower than or near the dissociation constant. To obtain a more accurate value, a series of titration experiments were performed at higher urea concentration, followed by subsequent extrapolation to compensate for the addition of urea.
(§2) To gain an extrapolation that excluded both glycerol and urea, a stepwise approach was taken that assumed that the two co-solutes had independent effects on the dissociation constant.

The target in data set [3] is T1, C-terminal fragment of CD92 (FNfn10 …). Put plainly: Trp fluorescence titration, 750 mM glycerol, 1 M urea, about 500 nM N-terminal fragment. The protocol: (§3) Proteins were dissolved to a final concentration of 500 nM in 20 mM sodium phosphate buffer at pH 6.0 containing 100 mM sodium chloride, 750 mM glycerol unless otherwise noted and various urea concentration between 1 M and 2.5 M. Urea concentration was determined using an Abbe refractometer (Spectronic Instruments) as described (Pace and Sholtz 1997). To obtain ([…] on the reconstitution at conditions without the addition of urea and glycerol, a series of C-terminal fragment-titration experiments with varying urea or glycerol concentrations, respectively, were performed. The dissociation constants in the absence of urea or glycerol were estimated by extrapolation based on experimental data
as §1

For data set [4] the target is unchanged. Put plainly: Trp fluorescence titrations, extrapolated to no urea, 750 mM glycerol. The protocol:
as §3, §1

Data set [5] has the same target. Put plainly: size exclusion chromatography of the mixed fragments of CD92. The protocol:
Size exclusion chromatography was performed on the fragments of CD92 using a Sephadex75 gel filtration column.
(Size exclusion chromatography separates by hydrodynamic size, large species first.)

Data set [6] has the same target. Put plainly: Trp fluorescence titrations, extrapolated to plain buffer (no urea, no glycerol). The protocol: as §1, §2
Another data set has as its target T2, Yeast ubiquitin (Sigma) (yeast, UniProt P0CG63 1-76).
T2 construct: mature; also called soluble ubiquitin; free ubiquitin
Put plainly: clone isolated by phage display selection on ubiquitin; listed as ubiquitin-binding monobody.

For a further data set, the target named is T3, FN(C)-STAV11.
T3 construct: also called C-FN3-STAV11
T3 chain: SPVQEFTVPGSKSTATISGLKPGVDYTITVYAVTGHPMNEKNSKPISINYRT
In words: flow cytometry of mated yeast: surface C-FN3-STAV11 by anti-V5/FITC, captured secreted N-FN3 by anti-FLAG/PE. Background: In flow cytometry, cells or beads pass a laser one at a time.

Square brackets hold non-standard residues; d marks the D form. Ends that are not written are not given here. * marks the point of attachment. hSer(lactone) = O=C1OCC[C@@H]1N*

T1 sequence (P02751 other isoform, or with tags, fused parts or gaps): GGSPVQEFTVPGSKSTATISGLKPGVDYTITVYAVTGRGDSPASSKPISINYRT
T2 sequence (P0CG63 1-76 limits assumed): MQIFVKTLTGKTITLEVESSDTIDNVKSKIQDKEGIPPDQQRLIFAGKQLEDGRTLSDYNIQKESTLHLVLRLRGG

On to VSDVPRKLQVVAATPTSLLISWDAPAVTVRYYRITYGETGGNGG[hSer(lactone)] (other, not fully specified, also called mutant CD-loop fragment), for which the binding result in data set [1] is recorded as “binds”. The Kd (in general, the concentration at which binding is half-saturated) in data set [2] is 3.9 nM; in data set [3] it was approximately 10 nM; in data set [4] it was approximately 1.5 nM; in data set [5], less than 1000 nM; in data set [6], 3.6 nM.

B1: ubiquitin-binding monobody 212 (Fn3 with BC loop CWRRA and FG loop RWVGLAW), phage clone (designed binder, not shown: large carriers; small tags and cut ends)
chain: VSDVPRDLEVVAATPTSLLISWDAPCWRRAYYRITYGETGGNSPVQEFTVPGSKSTATISGLKPGVDYTITVYAVTGRWVGLAWSKPISINYRT
notes: also called clone 212
For B1, the binding result with Yeast ubiquitin (Sigma) is reported as “binds”.

B2: ubiquitin-binding monobody 214 (Fn3 with BC loop CRRGR and FG loop RGFMWLS), phage clone (designed binder, not shown: large carriers; small tags and cut ends)
chain: VSDVPRDLEVVAATPTSLLISWDAPCRRGRYYRITYGETGGNSPVQEFTVPGSKSTATISGLKPGVDYTITVYAVTGRGFMWLSSKPISINYRT
notes: also called clone 214
Regarding B2, in the data set with Yeast ubiquitin (Sigma), the binding result was “binds”.

B3: ubiquitin-binding monobody 213 (Fn3 with BC loop CKHRR and FG loop FADLWWR), phage clone (designed binder, not shown: large carriers; small tags and cut ends)
chain: VSDVPRDLEVVAATPTSLLISWDAPCKHRRYYRITYGETGGNSPVQEFTVPGSKSTATISGLKPGVDYTITVYAVTGFADLWWRSKPISINYRT
notes: also called clone 213
For the molecule B3, the binding result with Yeast ubiquitin (Sigma) is “binds”.

B4: ubiquitin-binding monobody 215 (Fn3 with BC loop CNWRR and FG loop RAYRYRW), phage clone (designed binder, not shown: large carriers; small tags and cut ends)
chain: VSDVPRDLEVVAATPTSLLISWDAPCNWRRYYRITYGETGGNSPVQEFTVPGSKSTATISGLKPGVDYTITVYAVTGRAYRYRWSKPISINYRT
notes: also called clone 215
Regarding B4, the binding result with Yeast ubiquitin (Sigma) is recorded as “binds”.

B5: N-FN3 (residues 1-42) followed by the FLAG tag, secreted from yeast (other)
chain: VSDVPRDLEVVAATPTSLLISWDAPAVTVRYYRITYGETGGN
notes: also called wild-type N-terminal fragment; pGalsecFN(N)FLAG; not shown: FLAG tag
Take B5: the binding result with FN(C)-STAV11 is “binds”.
